One data set has as its target T1, TycC COM^A-CHS.
T1 chain: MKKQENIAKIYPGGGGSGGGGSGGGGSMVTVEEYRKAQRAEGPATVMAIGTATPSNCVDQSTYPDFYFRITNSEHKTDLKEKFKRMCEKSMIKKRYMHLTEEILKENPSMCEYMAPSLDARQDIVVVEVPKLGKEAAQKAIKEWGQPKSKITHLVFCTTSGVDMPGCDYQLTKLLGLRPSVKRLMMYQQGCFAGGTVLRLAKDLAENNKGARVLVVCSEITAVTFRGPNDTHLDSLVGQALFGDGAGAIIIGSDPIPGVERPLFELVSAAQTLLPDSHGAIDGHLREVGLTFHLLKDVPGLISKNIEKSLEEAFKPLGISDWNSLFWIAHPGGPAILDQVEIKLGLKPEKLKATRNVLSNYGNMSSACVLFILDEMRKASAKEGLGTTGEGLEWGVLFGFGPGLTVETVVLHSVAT

In another data set the target is T2, MlnE COM^A-CHS.
T2 chain: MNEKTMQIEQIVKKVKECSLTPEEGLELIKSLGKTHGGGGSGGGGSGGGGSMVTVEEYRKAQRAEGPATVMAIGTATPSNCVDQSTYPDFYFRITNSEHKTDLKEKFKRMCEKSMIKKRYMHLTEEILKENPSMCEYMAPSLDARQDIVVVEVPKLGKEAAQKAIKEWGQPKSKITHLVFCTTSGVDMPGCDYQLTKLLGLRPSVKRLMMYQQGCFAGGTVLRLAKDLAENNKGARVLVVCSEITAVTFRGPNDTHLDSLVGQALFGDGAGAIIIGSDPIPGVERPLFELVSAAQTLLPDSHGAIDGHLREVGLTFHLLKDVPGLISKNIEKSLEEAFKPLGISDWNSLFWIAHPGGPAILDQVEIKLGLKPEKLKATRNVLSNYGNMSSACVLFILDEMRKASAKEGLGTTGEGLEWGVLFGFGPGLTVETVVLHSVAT

For the next data set, the target named is T3, TycB COM^A-CHS.
T3 chain: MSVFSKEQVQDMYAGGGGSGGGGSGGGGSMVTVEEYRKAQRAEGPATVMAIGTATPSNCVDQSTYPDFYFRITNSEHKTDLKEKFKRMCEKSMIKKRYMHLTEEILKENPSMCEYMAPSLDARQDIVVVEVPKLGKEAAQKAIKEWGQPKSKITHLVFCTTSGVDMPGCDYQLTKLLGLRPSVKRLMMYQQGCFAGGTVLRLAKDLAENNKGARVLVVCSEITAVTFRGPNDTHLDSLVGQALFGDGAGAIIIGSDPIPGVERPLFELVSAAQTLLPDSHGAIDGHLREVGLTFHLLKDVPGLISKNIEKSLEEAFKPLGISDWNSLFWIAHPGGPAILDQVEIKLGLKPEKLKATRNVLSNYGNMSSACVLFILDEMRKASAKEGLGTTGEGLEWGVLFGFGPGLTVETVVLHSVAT

The target in a further data set is T4, Kj12C COM^A-CHS.
T4 chain: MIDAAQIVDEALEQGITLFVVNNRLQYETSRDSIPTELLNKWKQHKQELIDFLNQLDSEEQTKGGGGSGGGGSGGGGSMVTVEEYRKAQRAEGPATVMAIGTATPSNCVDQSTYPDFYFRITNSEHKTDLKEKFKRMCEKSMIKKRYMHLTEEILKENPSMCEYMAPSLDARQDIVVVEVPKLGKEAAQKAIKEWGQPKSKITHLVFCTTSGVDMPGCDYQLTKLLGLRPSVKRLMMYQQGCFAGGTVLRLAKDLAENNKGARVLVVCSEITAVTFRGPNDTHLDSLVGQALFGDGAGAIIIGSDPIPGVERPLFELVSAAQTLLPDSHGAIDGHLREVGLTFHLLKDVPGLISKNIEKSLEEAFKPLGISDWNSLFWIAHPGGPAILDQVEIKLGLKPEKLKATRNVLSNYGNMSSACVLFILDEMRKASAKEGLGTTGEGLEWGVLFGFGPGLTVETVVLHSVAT

In another data set the target is T5, MlnC COM^A-CHS.
T5 chain: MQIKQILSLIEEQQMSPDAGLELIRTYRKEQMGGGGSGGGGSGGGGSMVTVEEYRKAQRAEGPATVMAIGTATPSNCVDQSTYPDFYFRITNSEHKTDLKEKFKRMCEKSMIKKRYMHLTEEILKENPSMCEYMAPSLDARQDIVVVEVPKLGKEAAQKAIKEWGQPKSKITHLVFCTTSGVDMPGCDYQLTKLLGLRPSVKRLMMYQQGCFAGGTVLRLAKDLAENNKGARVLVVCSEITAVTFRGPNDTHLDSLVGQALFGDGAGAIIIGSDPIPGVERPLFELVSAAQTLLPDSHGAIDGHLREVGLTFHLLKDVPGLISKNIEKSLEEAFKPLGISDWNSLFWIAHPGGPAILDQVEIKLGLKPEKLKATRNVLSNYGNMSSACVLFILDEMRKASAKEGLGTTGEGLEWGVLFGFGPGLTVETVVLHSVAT

B1: 4CL-TycB COM^D (protein)
chain: MAPQEQAVSQVMEKQSNNNNSDVIFRSKLPDIYIPNHLSLHDYIFQNISEFATKPCLINGPTGHVYTYSDVHVISRQIAANFHKLGVNQNDVVMLLLPNCPEFVLSFLAASFRGATATAANPFFTPAEIAKQAKASNTKLIITEARYVDKIKPLQNDDGVVIVCIDDNESVPIPEGCLRFTELTQSTTEASEVIDSVEISPDDVVALPYSSGTTGLPKGVMLTHKGLVTSVAQQVDGENPNLYFHSDDVILCVLPMFHIYALNSIMLCGLRVGAAILIMPKFEINLLLELIQRCKVTVAPMVPPIVLAIAKSSETEKYDLSSIRVVKSGAAPLGKELEDAVNAKFPNAKLGQGYGMTEAGPVLAMSLGFAKEPFPVKSGACGTVVRNAEMKIVDPDTGDSLSRNQPGEICIRGHQIMKGYLNNPAATAETIDKDGWLHTGDIGLIDDDDELFIVDRLKELIKYKGFQVAPAELEALLIGHPDITDVAVVAMKEEAAGEVPVAFVVKSKDSELSEDDVKQFVSKQVVFYKRINKVFFTESIPKAPSGKILRKDLRAKLANGLGGGGSGGGGSEYTPSDLGDEELSMEELENILEWI
In the case of B1, the “production of naringenin (UPLC-qTOF-HR-MS), two-step in vitro reaction” value in the data set with TycC COM^A-CHS is listed as “the productivity by the metabolons with the remaining four pairs showed improvement”.

B2: 4CL-MlnD COM^D (protein)
chain: MAPQEQAVSQVMEKQSNNNNSDVIFRSKLPDIYIPNHLSLHDYIFQNISEFATKPCLINGPTGHVYTYSDVHVISRQIAANFHKLGVNQNDVVMLLLPNCPEFVLSFLAASFRGATATAANPFFTPAEIAKQAKASNTKLIITEARYVDKIKPLQNDDGVVIVCIDDNESVPIPEGCLRFTELTQSTTEASEVIDSVEISPDDVVALPYSSGTTGLPKGVMLTHKGLVTSVAQQVDGENPNLYFHSDDVILCVLPMFHIYALNSIMLCGLRVGAAILIMPKFEINLLLELIQRCKVTVAPMVPPIVLAIAKSSETEKYDLSSIRVVKSGAAPLGKELEDAVNAKFPNAKLGQGYGMTEAGPVLAMSLGFAKEPFPVKSGACGTVVRNAEMKIVDPDTGDSLSRNQPGEICIRGHQIMKGYLNNPAATAETIDKDGWLHTGDIGLIDDDDELFIVDRLKELIKYKGFQVAPAELEALLIGHPDITDVAVVAMKEEAAGEVPVAFVVKSKDSELSEDDVKQFVSKQVVFYKRINKVFFTESIPKAPSGKILRKDLRAKLANGLGGGGSGGGGSDTADGEIMSLLEKAQTGEMNTKETSELIEELLFHE
Take B2: the “production of naringenin (UPLC-qTOF-HR-MS), two-step in vitro reaction” value with MlnE COM^A-CHS is “the productivity by the metabolons with the remaining four pairs showed improvement”.

B3: 4CL-TycA COM^D (protein)
chain: MAPQEQAVSQVMEKQSNNNNSDVIFRSKLPDIYIPNHLSLHDYIFQNISEFATKPCLINGPTGHVYTYSDVHVISRQIAANFHKLGVNQNDVVMLLLPNCPEFVLSFLAASFRGATATAANPFFTPAEIAKQAKASNTKLIITEARYVDKIKPLQNDDGVVIVCIDDNESVPIPEGCLRFTELTQSTTEASEVIDSVEISPDDVVALPYSSGTTGLPKGVMLTHKGLVTSVAQQVDGENPNLYFHSDDVILCVLPMFHIYALNSIMLCGLRVGAAILIMPKFEINLLLELIQRCKVTVAPMVPPIVLAIAKSSETEKYDLSSIRVVKSGAAPLGKELEDAVNAKFPNAKLGQGYGMTEAGPVLAMSLGFAKEPFPVKSGACGTVVRNAEMKIVDPDTGDSLSRNQPGEICIRGHQIMKGYLNNPAATAETIDKDGWLHTGDIGLIDDDDELFIVDRLKELIKYKGFQVAPAELEALLIGHPDITDVAVVAMKEEAAGEVPVAFVVKSKDSELSEDDVKQFVSKQVVFYKRINKVFFTESIPKAPSGKILRKDLRAKLANGLGGGGSGGGGSERTPSDFSVKGLQMEEMDDIFELLANTLR
Regarding B3, the “production of naringenin (UPLC-qTOF-HR-MS), two-step in vitro reaction” value with TycB COM^A-CHS is “the productivity by the metabolons with the remaining four pairs showed improvement”.

B4: 4CL-Kj12B COM^D (protein)
chain: MAPQEQAVSQVMEKQSNNNNSDVIFRSKLPDIYIPNHLSLHDYIFQNISEFATKPCLINGPTGHVYTYSDVHVISRQIAANFHKLGVNQNDVVMLLLPNCPEFVLSFLAASFRGATATAANPFFTPAEIAKQAKASNTKLIITEARYVDKIKPLQNDDGVVIVCIDDNESVPIPEGCLRFTELTQSTTEASEVIDSVEISPDDVVALPYSSGTTGLPKGVMLTHKGLVTSVAQQVDGENPNLYFHSDDVILCVLPMFHIYALNSIMLCGLRVGAAILIMPKFEINLLLELIQRCKVTVAPMVPPIVLAIAKSSETEKYDLSSIRVVKSGAAPLGKELEDAVNAKFPNAKLGQGYGMTEAGPVLAMSLGFAKEPFPVKSGACGTVVRNAEMKIVDPDTGDSLSRNQPGEICIRGHQIMKGYLNNPAATAETIDKDGWLHTGDIGLIDDDDELFIVDRLKELIKYKGFQVAPAELEALLIGHPDITDVAVVAMKEEAAGEVPVAFVVKSKDSELSEDDVKQFVSKQVVFYKRINKVFFTESIPKAPSGKILRKDLRAKLANGLGGGGSGGGGSLLKEKRKHFQAEQNSSQEYLRGEI
As for B4, the “production of naringenin (UPLC-qTOF-HR-MS), two-step in vitro reaction” value in the data set with Kj12C COM^A-CHS was “productivity by 2-step metabolon_5, Kj12B-C was found similar to that by free enzymes (2-step_control: Free)”.

B5: 4CL-MlnB COM^D (protein)
chain: MAPQEQAVSQVMEKQSNNNNSDVIFRSKLPDIYIPNHLSLHDYIFQNISEFATKPCLINGPTGHVYTYSDVHVISRQIAANFHKLGVNQNDVVMLLLPNCPEFVLSFLAASFRGATATAANPFFTPAEIAKQAKASNTKLIITEARYVDKIKPLQNDDGVVIVCIDDNESVPIPEGCLRFTELTQSTTEASEVIDSVEISPDDVVALPYSSGTTGLPKGVMLTHKGLVTSVAQQVDGENPNLYFHSDDVILCVLPMFHIYALNSIMLCGLRVGAAILIMPKFEINLLLELIQRCKVTVAPMVPPIVLAIAKSSETEKYDLSSIRVVKSGAAPLGKELEDAVNAKFPNAKLGQGYGMTEAGPVLAMSLGFAKEPFPVKSGACGTVVRNAEMKIVDPDTGDSLSRNQPGEICIRGHQIMKGYLNNPAATAETIDKDGWLHTGDIGLIDDDDELFIVDRLKELIKYKGFQVAPAELEALLIGHPDITDVAVVAMKEEAAGEVPVAFVVKSKDSELSEDDVKQFVSKQVVFYKRINKVFFTESIPKAPSGKILRKDLRAKLANGLGGGGSGGGGSKNEDQEILFLLEQLKNGELSADQVYQLLEGK
Consider B5, for which, in the data set with MlnC COM^A-CHS, the “production of naringenin (UPLC-qTOF-HR-MS), two-step in vitro reaction” value is listed as “the productivity by the metabolons with the remaining four pairs showed improvement” and the “production of naringenin (UPLC-qTOF-HR-MS), two-step in vitro reaction, against free enzymes” value was “improved by 2 fold or more compared to that by free enzymes (Free) after 20 minutes of the reaction”.

(Values after patent US20230097015A1 (SEOUL NATIONAL UNIVERSITY R AND DB FOUNDATION, published 2023).)
